Literature values as cited in patent US6446032B1, “Designing compounds specifically inhibiting ribonucleic acid by binding to the minor groove” (Massachusetts Institute of Technology, priority 1990, dated 2002).

Tested on: normal cells as well as tumor cells
Details: binds and cleaves all rRNAs

B1: Alpha-sarcin: cytotoxic protein with potent antisarcoma activity, isolated from a mold, that inactivates ribosomes by cleaving the rRNA (protein, UniProt P00655 28-177, looked up)
Ribonuclease alpha-sarcin: AVTWTCLNDQKNPKTNKYETKRLLYNQNKAESNSHHAPLSDGKTGSSYPHWFTNGYDGDGKLPKGRTPIKFGKSDCDRPPKHSKDGNGKTDHYLLEFPTFPDGHDYKFDSKKPKENPGPARVIYTYPNKVFCGIIAHTKENQGELKLCSH
Question: For B1, which toxicity to cells is on record?
Answer: highly toxic to normal cells as well as tumor cells
